Measured values: the domain aggregation screens of Martell et al. (2025)

Assay: soluble fraction after stress (log2 fold change); higher = more stays soluble; pooled small domains, quantitative proteomics
Conditions: stress: pH 4
Procedure, shortened: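 Values are log2 fold changes, and higher ones mean more of the domain stayed soluble. Each fold change reflects the soluble amount of a domain after acid stress and is taken as a measure of aggregation propensity. The stress was pH 4, applied to pooled custom libraries of small protein domains analysed by high-throughput quantitative proteomics.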

Sequence	soluble fraction (log2)
HMADVLLKHGSSGDYVWDLQYRLKTLSLFDQEMTGYFGPHTRQAVVNFQRKYGLPADGVVGPATWRALRK	-0.551
HMADVPSTIFEAYRILGLNPEAPPVAVKKVVDALRMSWHPDHARSEPDRRHREERIKQINAAWDLLKGV	-0.128
HMADVYFDGKFLGETPVTVAVSTTGKPAHEISLIRGGYEPWSTTYQGNPRPGQTATVMAILVHA	-0.121
HMAEAAVELSQQILARLLEAGGSLPLSDKSSPEDIHRLFGVSKRTFKKAIGGLYKKGLILIHPERIELP	-0.0448
HMAEAETVKFVGNSLLLVSGAAKGERLSVYTVGGQHVLSADATKPVDVAALHSGVYVVRTTNGVITKIVK	0.0831
HMAEATATVTASEMVVRSGPSSSYSVLGSLEKGTVVTVLAASDGIAKISYKGNTGYARIVDMELNSA	0.37
HMAEDDAVQKAVREAVAESADAVADYKAGSERALNFIVGVVMKKTRGKASPGEVHRLVKAEVEK	0.143
HMAEDLRTLDGIDEDLLRDLAQAGITTRDGLAELSIDELREITGVEPGEAEKIILAARAHWFETDE	-1.19
HMAEEGEQAASNTAAQAEDRAAELAAAGEKGKQITKTLVAEFGIPKNEAYRLALDAVAAVKAER	-0.427
HMAEEPLRIWTDLQGRSIEASFIKFSGNNIVIKMKSGRDYEVARSLFSPGDQKYLSDLKKSTPE	-0.0706
HMAEERVLSVPQSLAGERLDAALASLMPDYSRSRLASWIKEGLVTVDGAGAMPKQKLWGGETLRVQAQPT	0.0973
HMAEKAVELTENEKAIQTILSNGALEIGELKTKLELSGKQWDVALKGLAKHGITQVSKVEGVVTVGL	0.124
HMAEKGIGRVNADWLNMRTSPGGEVLTVLKQGTELQVIGRSGSWLEVQHGNEQGYVSSRYITIQP	0.132
HMAEKVIVVADSITVGELAEKLNLPVTNLIGELFKNGIVSTINQRIDFETASIIVEELGLDVELERK	-0.96
HMAELNLPVRKIGGEDYYYRQVKKKETIYGISKELGITKEDIIKYNPSVASGLQRNQILYFPVKDFK	0.322
HMAELVISVKADGTIHYQDRQLTKEALAAVLETRPEALLNLYVDEKAPFEAFVGVVDIARLKRGGHFVIST	-0.947
HMAENPAYTKGVVNRLYKIRATPYYSYSYNVDQKTYEGRGKQYGEYENLHIGDTITVYYQRSNPSNSEA	-0.112
HMAEPIEKIIIEGNQRIEALTIQSYLLLRVGEPFNRQLMNQTLKSLYATGYFSDVAVTRVSSSLLVK	-0.0595

Sequence	soluble fraction (log2)
HMAEPLEIGDTVRIIDGFYGGEIGVISELVNPDAKNAEFEQVRVRLDQDTELALPIHNVERVRL	-0.0894
HMAEPRVQEVYFEFDGKQVEAGQVVSLIEQAYKNEGHQIGRIKDLKVYINSEEGKAYYVINGDDGEGKYIE	-0.67
HMAESLHVTAAALFEGRAMLGIDGSRRLLRVGETSPEGVKLVSATAREAVIEIDGRRQTLAPGRDT	0.0589
HMAESSLPKMPRDESKYIYHSVQPGETVYSLSKRYSVSESDIVKSNPGIDITKLSLGLEVAIPRI	0.0402
HMAEVAFEEQNIEQISNLLLRIQAIFAELMTALDKEKGGEIADNLERLYVFFLEKLGDANVRKDPAP	-0.135
HMAEVHVDGVTYQFSNPEQAVKFARKIAKELGLKVEVHGETVHVK	0.0901
HMAEVTLTVREQEVLHLLARGMSNGEMAAHLYVEPTTIKYHLTGLLQKTGSRDRLQAVLWGIRAGMVH	-1.15
HMAEWIYGKNVVKQSIEEGMVLKLILQRKEDPLFVLAQEKQIPVEILDRHKMTSLVKSDRHQGVAAQI	-0.645
HMAFEDYAGEYRSAADFAESLHEDTGTEIPESLRYYIDWQALARDMALNGEIMVFQTGFDEVHIFWS	-0.878
HMAFEITSAERTRLEDIARKGLTAYTAEWKQLPASEKKALNKTGLQDFLKSMAADADSAREEEA	0.0412
HMAFKEQLKAARLAKGYTQEQLATAIGVAKSTFTGYEKGNSEPNMLTIKKLMEILEVDANYLWY	-1.44
HMAFRWQQIADTITSMIANGSYPRGSRLPTEAALADSFGVNRHTVRRAVAALRDTGLVQPRQGAGVFVIG	-0.103
HMAFYQDIAVDLRKQIIDGVYPKNSRLPNQAELAKLYTTSRVTIQKALKILQIEGLIEGRQGSGSYVKGP	0.0757
HMAGHKVDFSELPARSQAFIGKNFPTEMVKNVEMERKDAKDHYTVLLSNGTKVMFDGTSGELTGV	0.0825
HMAGISQGLAENVERRITTLLREQKEVPVHDIDFPGISRETVGQVLHQMVQEEKLLLDDGMISLSPNQ	-0.229
HMAGPAGASEVANARDGDDETPLHMAARGGYPGIVRMLLAAGAKADAKSAAGLFPWNYAEDGSELHALLPR	-0.0731
HMAGPTIVTNSQGVPNYHLVKRGDTVSQIAQRYGLNYRQIGAINNLDSKYTIYSGQWLKLWQG	-0.00755
